Test results published in paper PMC11626150 (Proceedings of the National Academy of Sciences of the …, 2024).
Numbering of substitutions follows the chain as printed. Names and notes keep the numbering of the source.

B1: neutralizing monoclonal antibody 8H3 (antibody, V domains shown)
VH: QVQLKESGPGLVAPSQSLSITCTVSGFSLIGYGVNWVRQPPEKGLEWLGMIWGDGSTDYNSALKSRLSITKDNSKSQVFLKMNSLQTDDTARYYCAMGVRPDPFDYWGQGTLVTVSA
VL: NIMMTQSPSSLAVSAGEKVTMSCKSSQSVLYSSNQKNYLAWYQQKPGQSPKLLIYWASARESGVPDRFTGSGSGTDFTLTINSVQTEDLAVYYCHQYLSSYTFGGGTKLEIK
B2: neutralizing monoclonal antibody 8C11 (antibody, V domains shown)
VH: QVTLKESGPGILQPSQTLSLTCSFSGFSLSTSGMGVGWIRQPSGKGLEWLAHIWWDDVKRYSPALKSRLTISKDTSSSQLFLKIASVDTADTATYYCARIKSVITTGDYALDYWGQGTSVAVSS
VL: DIQMTQSPASLSVSVGETVTITCRASEIIYSNLAWYQQKQGKSPQLLVYSATNLAEGVPSRFSGSGSGTQYSLKINSLQSEDFGSYYCQHFWGNPWTFGGGTKLEIK
B3: 8C11 mAb mutant K66A (heavy chain) (antibody, V domains shown)
VH: B2 VH with K66A
VL: B2 VL
B4: 8C11 mAb mutant S67A (heavy chain) (antibody, V domains shown)
VH: B2 VH with S67A
VL: B2 VL
B5: 8C11 mAb mutant D88A (heavy chain) (antibody, V domains shown)
VH: B2 VH with D88A
VL: B2 VL

What was measured:
Experiment in all cases: ELISA
[1] = molecular target: T1, HEV genotype 1 E2(I) dimer protein (hepatitis E virus genotype 1 (human HEV), UniProt P29326)
HEV genotype 4 E2(IV) = HEV genotype 4 E2(IV) (Hepatitis E virus genotype 4, swine …, UniProt D3VV84, strain)
[2] = molecular target: Other eight antigen mutants (E2 mutants preincubated with 8C11)
[3] = molecular target: T1, HEV genotype 1 E2(I) dimer protein; remark: listed apart in the source

Row | Binder | ET50 [1] [dilution fold] | binding result (HEV genotype 4 E2(IV)) | binding result [3] | also measured
1 | B1 | 4660 | binds | – | ET50 (after a non-related mAb, anti-HPV mAb A12A3) [1]: 3030 dilution fold; fold increase in synergy (8H3 binding with 8C11 pre-bound) [2]: 10 fold
2 | B2 | 172000 | binds | – | ET50 (after a non-related mAb) [1]: 188000 dilution fold
3 | B3 | – | – | binds | –
4 | B4 | – | – | binds | –
5 | B5 | – | – | binds | –
